{
  "source": "the supplement of paper PMC11316812",
  "key": {"[1]": {"test_system": "MCF7", "experiment": "percentage of EdU-negative (G0-arrested) nuclei per well, 72 h; higher = more G0 arrest", "conditions": "reference: sequence is the full UniProt precursor, the tested protein was the secreted form or ectodomain"}, "[2]": {"test_system": "hTERT-HMEC", "experiment": "percentage of EdU-negative (G0-arrested) nuclei per well, 72 h; higher = more G0 arrest", "conditions": "reference: sequence is the full UniProt precursor, the tested protein was the secreted form or ectodomain"}, "[3]": {"conditions": "protein concentration 0.0225 µM"}, "[4]": {"conditions": "protein concentration 0.03125 µM"}, "[5]": {"conditions": "protein concentration 0.3125 µM"}, "[6]": {"conditions": "protein concentration 0.018565 µM"}, "[7]": {"conditions": "protein concentration 0.18565 µM"}, "[8]": {"conditions": "protein concentration 0.0105 µM"}, "[9]": {"conditions": "protein concentration 0.00828571 µM"}, "[10]": {"conditions": "protein concentration 0.0828571 µM"}},
  "note": "± gives the standard deviation of the averaged measurements.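 Further: secreted proteins added to cultured cells, EdU pulse at the end, nuclei found by Hoechst imaging, EdU status from nuclear versus surrounding ring intensity ratio, PBS as neutral control.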",
  "data": [
    {"sequence": "MSLMVVSMVCVGFFLLQGAWPHEGVHRKPSLLAHPGPLVKSEETVILQCWSDVRFQHFLLHREGKFKDTLHLIGEHHDGVSKANFSIGPMMQDLAGTYRCYGSVTHSPYQLSAPSDPLDIVITGLYEKPSLSAQPGPTVLAGESVTLSCSSRSSYDMYHLSREGEAHERRFSAGPKVNGTFQADFPLGPATHGGTYRCFGSFRDSPYEWSNSSDPLLVSVTGNPSNSWPSPTEPSSETGNPRHLHVLIGTSVVIILFILLLFFLLHRWCCNKKNAVVMDQEPAGNRTVNREDSDEQDPQEVTYAQLNHCVFTQRKITRPSQRPKTPPTDIIVYTELPNAEP", "values": [
      {"measurement": "percentage of EdU-negative", "setting": "[1]; [3]", "value": "22.6 ± 0.43", "unit": "%"},
      {"measurement": "percentage of EdU-negative", "setting": "[1]; protein concentration 0.225 µM", "value": "26.6 ± 2.4", "unit": "%"},
      {"measurement": "percentage of EdU-negative", "setting": "[2]; [3]", "value": "5.55 ± 0.17", "unit": "%"},
      {"measurement": "percentage of EdU-negative", "setting": "[2]; protein concentration 0.225 µM", "value": "11.3 ± 1.1", "unit": "%"}
    ]},
    {"sequence": "MSLRLDTTPSCNSARPLHALQVLLLLSLLLTALASSTKGQTKRNLAKGKEESLDSDLYAELRCMCIKTTSGIHPKNIQSLEVIGKGTHCNQVEVIATLKDGRKICLDPDAPRIKKIVQKKLAGDESAD", "values": [
      {"measurement": "percentage of EdU-negative", "setting": "[1]; [4]", "value": "26.14 ± 0.19", "unit": "%"},
      {"measurement": "percentage of EdU-negative", "setting": "[1]; [5]", "value": "26.53 ± 0.004", "unit": "%"},
      {"measurement": "percentage of EdU-negative", "setting": "[2]; [4]", "value": "5.49 ± 1.9", "unit": "%"},
      {"measurement": "percentage of EdU-negative", "setting": "[2]; [5]", "value": "4.65 ± 0.1", "unit": "%"}
    ]},
    {"sequence": "MSLSAFTLFLALIGGTSGQYYDYDFPLSIYGQSSPNCAPECNCPESYPSAMYCDELKLKSVPMVPPGIKYLYLRNNQIDHIDEKAFENVTDLQWLILDHNLLENSKIKGRVFSKLKQLKKLHINHNNLTESVGPLPKSLEDLQLTHNKITKLGSFEGLVNLTFIHLQHNRLKEDAVSAAFKGLKSLEYLDLSFNQIARLPSGLPVSLLTLYLDNNKISNIPDEYFKRFNALQYLRLSHNELADSGIPGNSFNVSSLVELDLSYNKLKNIPTVNENLENYYLEVNQLEKFDIKSFCKILGPLSYSKIKHLRLDGNRISETSLPPDMYECLRVANEVTLN", "values": [
      {"measurement": "percentage of EdU-negative", "setting": "[1]; [6]", "value": "25.7 ± 0.65", "unit": "%"},
      {"measurement": "percentage of EdU-negative", "setting": "[1]; [7]", "value": "25.1 ± 0.99", "unit": "%"},
      {"measurement": "percentage of EdU-negative", "setting": "[2]; [6]", "value": "5.59 ± 1.8", "unit": "%"},
      {"measurement": "percentage of EdU-negative", "setting": "[2]; [7]", "value": "6.27 ± 1.2", "unit": "%"}
    ]},
    {"sequence": "MSLSFLLLLFFSHLILSAWAHGEKRLAPKGQPGPAATDRNPRGSSSRQSSSSAMSSSSASSSPAASLGSQGSGLEQSSFQWSPSGRRTGSLYCRVGIGFHLQIYPDGKVNGSHEANMLSVLEIFAVSQGIVGIRGVFSNKFLAMSKKGKLHASAKFTDDCKFRERFQENSYNTYASAIHRTEKTGREWYVALNKRGKAKRGCSPRVKPQHISTHFLPRFKQSEQPELSFTVTVPEKKKPPSPIKPKIPLSAPRKNTNSVKYRLKFRFG", "values": [
      {"measurement": "percentage of EdU-negative", "setting": "[1]; [4]", "value": "27.9 ± 2.3", "unit": "%"},
      {"measurement": "percentage of EdU-negative", "setting": "[1]; [5]", "value": "28 ± 0.77", "unit": "%"},
      {"measurement": "percentage of EdU-negative", "setting": "[2]; [4]", "value": "4.71 ± 0.44", "unit": "%"},
      {"measurement": "percentage of EdU-negative", "setting": "[2]; [5]", "value": "5.28 ± 0.53", "unit": "%"}
    ]},
    {"sequence": "MSLVLLSLAALCRSAVPREPTVQCGSETGPSPEWMLQHDLIPGDLRDLRVEPVTTSVATGDYSILMNVSWVLRADASIRLLKATKICVTGKSNFQSYSCVRCNYTEAFQTQTRPSGGKWTFSYIGFPVELNTVYFIGAHNIPNANMNEDGPSMSVNFTSPGCLDHIMKYKKKCVKAGSLWDPNITACKKNEETVEVNFTTTPLGNRYMALIQHSTIIGFSQVFEPHQKKQTRASVVIPVTGDSEGATVQLTPYFPTCGSDCIRHKGTVVLCPQTGVPFPLDNNKSKPGGWLPLLLLSLLVATWVLVAGIYLMWRHERIKKTSFSTTTLLPPIKVLVVYPSEICFHHTICYFTEFLQNHCRSEVILEKWQKKKIAEMGPVQWLATQKKAADKVVFLLSNDVNSVCDGTCGKSEGSPSENSQDLFPLAFNLFCSDLRSQIHLHKYVVVYFREIDTKDDYNALSVCPKYHLMKDATAFCAELLHVKQQVSAGKRSQACHDGCCSL [Q9NRM6]", "values": [
      {"measurement": "percentage of EdU-negative", "setting": "[1]; [3]", "value": "25.3 ± 1.3", "unit": "%"},
      {"measurement": "percentage of EdU-negative", "setting": "[1]; protein concentration 0.225 µM", "value": "26.76 ± 0.21", "unit": "%"},
      {"measurement": "percentage of EdU-negative", "setting": "[2]; [3]", "value": "4.78 ± 0.46", "unit": "%"},
      {"measurement": "percentage of EdU-negative", "setting": "[2]; protein concentration 0.225 µM", "value": "5.29 ± 0.1", "unit": "%"}
    ]},
    {"sequence": "MSLWKKTVYRSLCLALALLVAVTVFQRSLTPGQFLQEPPPPTLEPQKAQKPNGQLVNPNNFWKNPKDVAAPTPMASQGPQAWDVTTTNCSANINLTHQPWFQVLEPQFRQFLFYRHCRYFPMLLNHPEKCRGDVYLLVVVKSVITQHDRREAIRQTWGRERQSAGGGRGAVRTLFLLGTASKQEERTHYQQLLAYEDRLYGDILQWGFLDTFFNLTLKEIHFLKWLDIYCPHVPFIFKGDDDVFVNPTNLLEFLADRQPQENLFVGDVLQHARPIRRKDNKYYIPGALYGKASYPPYAGGGGFLMAGSLARRLHHACDTLELYPIDDVFLGMCLEVLGVQPTAHEGFKTFGISRNRNSRMNKEPCFFRAMLVVHKLLPPELLAMWGLVHSNLTCSRKLQVL [Q8NFL0]", "values": [
      {"measurement": "percentage of EdU-negative", "setting": "[1]; [8]", "value": "25.6 ± 1", "unit": "%"},
      {"measurement": "percentage of EdU-negative", "setting": "[1]; protein concentration 0.105 µM", "value": "27.97 ± 0.1", "unit": "%"},
      {"measurement": "percentage of EdU-negative", "setting": "[2]; [8]", "value": "4.88 ± 0.47", "unit": "%"},
      {"measurement": "percentage of EdU-negative", "setting": "[2]; protein concentration 0.105 µM", "value": "6.5 ± 1.4", "unit": "%"}
    ]},
    {"sequence": "MSLWQPLVLVLLVLGCCFAAPRQRQSTLVLFPGDLRTNLTDRQLAEEYLYRYGYTRVAEMRGESKSLGPALLLLQKQLSLPETGELDSATLKAMRTPRCGVPDLGRFQTFEGDLKWHHHNITYWIQNYSEDLPRAVIDDAFARAFALWSAVTPLTFTRVYSRDADIVIQFGVAEHGDGYPFDGKDGLLAHAFPPGPGIQGDAHFDDDELWSLGKGVVVPTRFGNADGAACHFPFIFEGRSYSACTTDGRSDGLPWCSTTANYDTDDRFGFCPSERLYTQDGNADGKPCQFPFIFQGQSYSACTTDGRSDGYRWCATTANYDRDKLFGFCPTRADSTVMGGNSAGELCVFPFTFLGKEYSTCTSEGRGDGRLWCATTSNFDSDKKWGFCPDQGYSLFLVAAHEFGHALGLDHSSVPEALMYPMYRFTEGPPLHKDDVNGIRHLYGPRPEPEPRPPTTTTPQPTAPPTVCPTGPPTVHPSERPTAGPTGPPSAGPTGPPTAGPSTATTVPLSPVDDACNVNIFDAIAEIGNQLYLFKDGKYWRFSEGRGSRPQGPFLIADKWPALPRKLDSVFEERLSKKLFFFSGRQVWVYTGASVLGPRRLDKLGLGADVAQVTGALRSGRGKMLLFSGRRLWRFDVKAQMVDPRSASEVDRMFPGVPLDTHDVFQYREKAYFCQDRFYWRVSSRSELNQVDQVGYVTYDILQCPED", "values": [
      {"measurement": "percentage of EdU-negative", "setting": "[1]; [9]", "value": "24.2 ± 1.4", "unit": "%"},
      {"measurement": "percentage of EdU-negative", "setting": "[1]; [10]", "value": "24.7 ± 0.13", "unit": "%"},
      {"measurement": "percentage of EdU-negative", "setting": "[2]; [9]", "value": "4.71 ± 0.63", "unit": "%"},
      {"measurement": "percentage of EdU-negative", "setting": "[2]; [10]", "value": "6.64 ± 0.96", "unit": "%"}
    ]}
  ]
}
